The target in assay [1] is T1, purified recombinant murine VWF (murine, UniProt Q8CIZ8 764-2813).
T1 construct: also called rmVWF
Nature of the assay: ELISA, sdAb immobilized.
Description: (§1) Wells were then washed three times with 75 μl/well using TBS-T. Residual peroxidase activity was detected by measuring peroxidase-mediated hydrolysis of 3,3′,5,5′-tetramethylbenzidine.
(§2) Negative binding (−) was defined as optical density (OD) being ≤0.5, moderate positive binding (+) was defined as OD being >0.5 and <1.0, strongly positive binding (++) was defined as OD being ≥1.0.

Another assay addresses T2, mD1-D2-HPC4 fragment (murine, UniProt Q8CIZ8 23-762).
T2 construct: range 23-762
Nature of the assay: ELISA, sdAb immobilized.

Consider two molecules from patent publication US20200207869A1 (INSERM INSTITUT NATIONAL DE LA SANTE ET DE LA RECHERCHE …, published 2020).

Description for mD1-D2-HPC4 fragment: as §1, §2

B1: sdAb KB-VWF-011 (VHH)
VHH: QVQLVQSGGGLVQAGDSLRLSCAASGGTFSNYAMGWFRQTPGKEREFVARISRSGHRTDYADSAKGRFTISRDNAKNTVYLQMNSLKPEDTAVYYCAARSDWSIATTATSYDYWGQGTQVTVSS
notes: Single-domain antibody against the VWF D'D3 domain; no tag stated
As for B1, the OD (in assay [1]; with mD1-D2-HPC4 fragment) was ≤ 0.5 od throughout.

B2: sdAb KB-VWF-013 (VHH)
VHH: QVQLVQSGGGLVQAGDSLRLSCAASGRTFIRYAMAWFRQAPGKEREFVAAIPQSGGRSYYADSVKGRFTISRDNAKNTVYLQMNSLKPEDTAVYSCAATSTYYGRSAYSSHSGGYDYWGQGTQVTVSS
notes: as for B1
Consider B2, for which the OD with mD1-D2-HPC4 fragment was ≤ 0.5 od.
